This data set can be described thus: yeast display, Sf9 membrane polyspecificity reagent, FACS + sequencing; frameworks hold sequencing errors. The procedure, abridged:
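After 36–48 hours of galactose induction, yeast (Saccharomyces cerevisiae BJ5465) displaying a synthetic nanobody library were stained at 4 °C for 1 hour with 10% biotinylated, detergent-solubilized Sf9 membrane reagent. Streptavidin microbeads enriched the stained cells before FACS sorting into low and high (top ~1%) gates on anti-HA and streptavidin fluorescence. Each clone's polyreactivity label reflects its gate of origin.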
For the sequence “QVQLVESGGGLVQAGGSLRLSCAASGSISGYYAMGWYRQAPGKERELVASIRYTGARTYYADSVKGRFTSSRDNAKNTVYLQMNRLKPEDTAVFYCAADKVQYEGDAYGPPQYDYWGQGTQVTVSS”, the “polyreactivity (PSR sort gate)” value is “low polyreactivity”. The value for “QVQLVESGGGLVQAGGSLRLSCAASGSISGYYVMGWYRQAQGKERELVAAITWRGGSTYYADSVKGRFTISRDNAKNTVYLQMNSLKPEDTAVYYCNKVPGRGSTFEYWGQGTQVTVSS” was “high polyreactivity”; that for “QVQLVESGGGLVQAGGSLRLSCAASGSISIGYTMGWYRQAPGKERELVATISWSGGNTYYADSVKGRFTISRDNAKNTVYLQMNSLKPEDTAVYYCAGRWYYYPLLYDYWGQGTQVTVSS” was “low polyreactivity”. Under “QVQLVESGGGLVQAGGSLRLSCAASGSISIGYTMGWYRQSPGKERDLVATISWSGGNTYYADSVKGRFTIARDNAKNTVYLQINSLKPEDSAVYYFAARWYYYPLLYDYWGQGTQVTVSS” stands “low polyreactivity”; under “QVQLVESGGGLVQAGGSLRLSCAASGSISIRNAMGWYRQAPGKERELVAAISRGGSTYYADSVKGRFTISRDNAKNKVYLQMNSLKPEDTAVYYCNVLHLRRTAIMDYWGQGTQVTVSS”, “high polyreactivity”. The value for “QVQLVESGGGLVQAGGSLRLSCAASGSISIVYTMGWYRQAPGKERELVATISWSGGNTYYADSVKGRFTISRDYAKNTVYLQMNSLKPEDTAVYYCAARWYYYPLLYDYWGQGTQVTVSS” was “low polyreactivity”; that for “QVQLVESGGGLVQAGGSLRLSCAASGSISRYYAMGWYRQAPGKERELVAAISSNGGSTYYADSVKGRFTISRDNAKNTVYLQMNSLKPEDTAVYYCNAYYVGYIRYWTNKLVDYWGQGTQVTVSS” was “high polyreactivity”. Turning to “QVQLVESGGGLVQAGGSLRLSCAASGSISSFYAMGWYRQAPGKERELVAGITSGGSTNYADSVNGRFTISRDNAKNTVYLKLNSLNPEDTAVFYCAAERTPSYRAYDYWGKGTQVTVSS”, the “polyreactivity (PSR sort gate)” value is reported as “low polyreactivity”. Under “QVQLVESGGGLVQAGGSLRLSCAASGSISSKNAMGWYRQAPGKEREFVAVISGTGGSTYYADSVKGRLTISRDNAKNTVYLQMNSLKPEDTAVYYCAAAASSIVSYGYTWTYGYWGQGTQVTVSS” stands “low polyreactivity”. “QVQLVESGGGLVQAGGSLRLSCAASGSISSQYAMGWYRQAPGKERELVAAISYSGGSTYYADSVKGRFTISRDNAKNTVYLQMNSLKPEDTAVYYCAAETSYYTRWFDGHYYYWGQGTQVTVSS”: the “polyreactivity (PSR sort gate)” value was “high polyreactivity”. Under “QVQLVESGGGLVQAGGSLRLSCAASGSISSVNVMGWYRQAPGKERELVAAISSGTSTHYADSVKGRFTISRDNAKNTVYLQMNSLKPVDTAVYYCAAYFYRQYLYFLYEYDYWGQGTQVTVSS” stands “low polyreactivity”; under “QVQLVESGGGLVQAGGSLRLSCAASGSISTVNVMGWYRQAPGKERELVAAISSGTSTHYADSVKVRFTISRDNAKNTVYLQMNSLKPEDTAVYYCAAYFYRQYLYFLYEYDYWGQGTQVTVSS”, “low polyreactivity”. The value for “QVQLVESGGGLVQAGGSLRLSCAASGSISWHYAMGWYRQAPGKERELVASISTDGGTTYYADSVKGRFTISRDNAKNTVYLQMNSLKPEDTAVYYCAAEWYWVYYVPYEYWGQGTQVTVSS” was “low polyreactivity”; that for “QVQLVESGGGLVQAGGSLRLSCAASGSISYANALGWYRQAPGKERELVAAISGSGGSTYYADSVKGRFTISRDNAKNTVYLQMNSLKPEDTAVYYCAARGFPPGDEWHPYDYWGQGTQVTVSS” was “low polyreactivity”.

Consider “QVQLVESGGGLVQAGGSLRLSCAASGSISYDYAMGWDRQAPGKERELVASITSRGGSTYADSVKGRFTISRDKAKNTVYLQMNSLKPEDTAVYYCAADAIPNLIFISLPFGLDYWGQGTQVTVSS”, for which the “polyreactivity (PSR sort gate)” value is given as “low polyreactivity”. The value for “QVQLVESGGGLVQAGGSLRLSCAASGSISYQNAMGWYRQAPGKERELVAAITSSGGNTYYADSVKGRFTISRDNAKNTVYLQMNSLKPEDTAVYYCNAVLYYDSYLYYYWGQGTQVTVSS” was “low polyreactivity”; that for “QVQLVESGGGLVQAGGSLRLSCAASGSISYRYDKGWYRQAPGKEMELVATIRSGGSTNYADSVKGRFTISRDTAKNTVYLQMNSLKPEDTAVYYGAARLYARKKLHFSADSDYWGQGTQVTVSS” was “low polyreactivity”; that for “QVQLVESGGGLVQAGGSLRLSCAASGSIVAGYAMGWYRQAPGKEREMVAAISDSGGNTYYADSVKGRFTISRDNAKNTVYLQMNSLKPEDTAVYYCAADLGYGPLRELEYWGQGTQVTVSS” was “low polyreactivity”. In the case of “QVQLVESGGGLVQAGGSLRLSCAASGSIVGGYDMGWYRQAPGKERELVAVINSNGGSTYYADSVKGRFTISRDNANNTVYLQMNSLKPEDTAVYYCAADYESYVYIGYGYWGQGTQVTVSS”, the “polyreactivity (PSR sort gate)” value was “low polyreactivity”. Under “QVQLVESGGGLVQAGGSLRLSCAASGSIVGRYAMGWYSQAPGQERELVAAISTGDSTYYADSVKGRFTISRDNAKNTVYLQMNSLKPEDTAVYYCNRRGRRVYDYWGQGTQVTVSS” stands “high polyreactivity”; under “QVQLVESGGGLVQAGGSLRLSCAASGSIVGYYFMGWYRQAPGKERELVAAITRSGSTYYADSVKGRFTISRDNEKNTVYLQMNSLKPEDTAVYYCAADGSYYWYTHTTYDYWGQGTQVTVSS”, “low polyreactivity”. Take “QVQLVESGGGLVQAGGSLRLSCAASGSIVNIYAMGWYRQAPGKERQLVARISCSGVSTYYADSVKGRLTISRDHAKNTVYLQMNSLKREDTAVYDCAARYGRVYYYGWYWLYYWGQGTQVTVSS”: the “polyreactivity (PSR sort gate)” value was “high polyreactivity”. Under “QVQLVESGGGLVQAGGSLRLSCAASGSIVNYYAMGWYRPAPGKERELVAAITSGGSTYYADSVKGRFTISRDNAKNTVYLQMNSLKAEDTAVYYCNKAFPYIYDYWGQGTQVTVSS” stands “low polyreactivity”; under “QVQLVESGGGLVQAGGSLRLSCAASGSIVNYYAMGWYRQAPGKERELVAAITWSGGRTYSADSVKGRFTSSRDNAKNTVYLQMNSLKPEDTAVYYCATAPVRIRDILFSPRMDYWGLGTQVTVSS”, “low polyreactivity”. Take “QVQLVESGGGLVQAGGSLRLSCAASGSIVVWNDMGWYRQAPGTEREFVAAITSRDGSTYYADSVKGRFTISRDNAKNTVYLQMNSLKPEDTAVYYCAARLRVTVFYSRTRYYWGQGTQVTVSS”: the “polyreactivity (PSR sort gate)” value was “low polyreactivity”.

“QVQLVESGGGLVQAGGSLRLSCAASGSIVYTNALGWSRQAPAKERELVAAISGSGGNTYYADSVKVRFTISRDNAKNTVYLQMNSLNPEDTAVYYCAADRNAYYYDSYYYWGLGTQVTVSS”: the “polyreactivity (PSR sort gate)” value was “high polyreactivity”. The value for “QVQLVESGGGLVQAGGSLRLSCAASGSIVYYYGMGWYRPAPGKETELVAAISTGGSTYYADSVKGRFTISRDKAKKTVYLQMNSLKPEDTADFYCSADYYTQWQTRYDYWGQGTQVTVSS” was “low polyreactivity”; that for “QVQLVESGGGLVQAGGSLRLSCAASGSIYDPYAMGWYRQAPGKERELVAAINGGSGSTFYADSVKGRFTISRDNAKNTVYFQMNSLKPEDTAVYYCAAKIWRYSPSYYPEPRGDYWGQGTQVNVSS” was “low polyreactivity”; that for “QVQLVESGGGLVQAGGSLRLSCAASGSIYGSYVMGWYRQAPGKERELVAAINWSGGRTYYADSVKGRFTISRDNAKYTVFLQMNSLKPEDTAVYYCAARATNVYSKMDYWGQGTQVSVSS” was “high polyreactivity”. Under “QVQLVESGGGLVQAGGSLRLSCAASGSIYGYTMGWYRPAPGKERELVAAINRRADRTYYADSVKGRYTISRDNAKNTVYLQMNSLKPEDTAVYYCNKGGWYTLGYWGQGTQVTVSS” stands “high polyreactivity”. Under “QVQLVESGGGLVQAGGSLRLSCAASGSIYHPYALGWYRQAPGKERELVAAISKSGGNTYYADSVKGRFTISRDNAKNTVYLQMNCLKPEDTAVYYCAALDYWGQGTQVTVSS” stands “low polyreactivity”; under “QVQLVESGGGLVQAGGSLRLSCAASGSIYITYAMGWYRQAPGKERELVAAIRDSGDRTYYADSVKGRFTISRDNAKNTVYLQMNSLKPEDTAVYYCNARWQEPLKYDYWGQGTQVTVSS”, “low polyreactivity”. Regarding “QVQLVESGGGLVQAGGSLRLSCAASGSIYNINAMGWYRQAPGKERELVATITSGGTTSYADSVKGRFTISRDNAKNTVYLQMNSLKPEDTAVYYCNAEIYPIVKAGRQHPRRYDYWGQGTQVTVSS”, the “polyreactivity (PSR sort gate)” value is on record as “low polyreactivity”. The value for “QVQLVESGGGLVQAGGSLRLSCAASGSIYPYYAKGWNRPAPRKERELFAAIDSGGSTNYADSLKGRFSITRDNAKNRVYLQLNSLIPEDTAVFYCADDVYWFAYVWSKYVFWGQGTHVTVSS” was “low polyreactivity”. Under “QVQLVESGGGLVQAGGSLRLSCAASGSIYQNAMGWYRQAPGKERELVAAITSSGGRTYADSVKGRFTISRDNAKNTVYLQMNSLKPEDTAVYYCAKDSTADELTGFDYWGQGTQVTVSS” stands “low polyreactivity”; under “QVQLVESGGGLVQAGGSLRLSCAASGSIYRWYAMGWYRQAPGKERELVASISSGTRTNYADSVKGRFTISRDNAKNTVYLQMNSLKPEDTAVYYCAAPYVKRWWGYGYWGQGTQVTVSS”, “high polyreactivity”; under “QVQLVESGGGLVQAGGSLRLSCAASGSIYSNAMGWYRQAPGKERELVAAISRTGGSTYYADSVKGLFTISRDNAKITVYLQMNSLKPEDTAVYYCAVSAWTRSHALYYWGQGTQVTVSS”, “high polyreactivity”. The value for “QVQLVESGGGLVQAGGSLRLSCAASGSIYSNAMGWYRQAPGKERELVAAISWRDGRTYYADSVKGRFTISRDNAKNTVYLQMNSLKPEDTAVYYCNADSRPLSTYYYWGQGTQVTVSS” was “low polyreactivity”; that for “QVQLVESGGGLVQAGGSLRLSCAASGSIYTHYAMGWYRQAPRKQRELVAAISRRGGSTYYADSVKGRFTISRDNAKNTVYLPMHSLKPEDTAVYYCAKSPDTAKEYDYWGQGTQVTVSS” was “high polyreactivity”.

On to “QVQLVESGGGLVQAGGSLRLSCAASGSIYTQNAMGWYRQAPGKERELVADISRGSTYYADSVKGRFTISRDNAKNTVYLQMNSLKPEDTAVYYCAADDIAHPSFVSTVDVGMDYWGQGTQVTVSS”, for which the “polyreactivity (PSR sort gate)” value is “low polyreactivity”.
